Data taken from patent publication US20040186053A1.
Positions count from the first letter of the chain named. In names and notes the source's numbering stands. Values belong to the molecule of their own block, whether it stands above or below them.

Assays:
[1] = biological target: factor Xa (UniProt P00742); assay: cell-based or functional assay
[2] = biological target: factor Xa (UniProt P00742); assay: cell-based or functional assay; remark: listed apart in the source

Molecule: tissue factor pathway inhibitor (TFPI) (from UniProt P10646 29-304)
inhibition of the chromogenic activity of the factor Xa preparations [1]: > 99%

Molecule: human protein Z (PZ), isolated from citrated fresh frozen plasma (from UniProt P22891 41-400)
Apparent Inhibition (%) of factor Xa, one-stage coagulation assay; incubation factor Xa 15 sec, PZ 120 sec [1]: 70% | Apparent Inhibition (%) of factor Xa, one-stage coagulation assay; incubation factor Xa 30 sec, PZ 120 sec [1]: 71% | Apparent Inhibition (%) of factor Xa, one-stage coagulation assay; incubation factor Xa 60 sec, PZ 120 sec [1]: 73% | Apparent Inhibition (%) of factor Xa, one-stage coagulation assay; incubation factor Xa 90 sec, PZ 120 sec [1]: 76% | Apparent Inhibition (%) of factor Xa, one-stage coagulation assay; incubation factor Xa 120 sec, PZ 0 sec [1]: 0% | Apparent Inhibition (%) of factor Xa, one-stage coagulation assay; incubation factor Xa 120 sec, PZ 15 sec [1]: 50% | Apparent Inhibition (%) of factor Xa, one-stage coagulation assay; incubation factor Xa 120 sec, PZ 30 sec [1]: 61% | Apparent Inhibition (%) of factor Xa, one-stage coagulation assay; incubation factor Xa 120 sec, PZ 60 sec [1]: 72% | Apparent Inhibition (%) of factor Xa, one-stage coagulation assay; incubation factor Xa 120 sec, PZ 90 sec [1]: 76% | Apparent Inhibition (%) of factor Xa, one-stage coagulation assay; incubation factor Xa 120 sec, PZ 120 sec [1]: 78% | Apparent Inhibition (%) of factor Xa, one-stage coagulation assay; incubation factor Xa 120 sec, PZ 120 sec w/o Ca++ [1]: 0% | Apparent Inhibition (%) of factor Xa, one-stage coagulation assay; incubation factor Xa 120 sec, PZ 120 sec w/o cephalin [1]: 0% | Apparent factor Xa inhibition by inclusion of PZ during preincubation, plasma treated with preimmune IgG (clotting time) [1]: 76% | molar ratio (PZ:factor Xa) from PZ dose/response of ZPI-mediated factor Xa inhibition, amidolytic assay (mol PZ per mol factor Xa) [1]: 1.4

B1: human protein Z-dependent protease inhibitor (ZPI), purified from human plasma (protein)
chain: LAPSPQSPETPAPQNQTSRVVQAPKEEEEDEQEASEEKASEEEKAWLMASRQQLAKETSNFGFSLLRKISMRHDGNMVFSPFGMSLAMTGLMLGATGPTETQIKRGLHLQALKPTKPGLLPSLFKGLRETLSRNLELGLTQGSFAFIHKDFDVKETFFNLSKRYFDTECVPMNFRNASQAKRLMNHYINKETRGKIPKLFDEINPETKLILVDYILFKGKWLTPFDPVFTEVDTFHLDKYKTIKVPMMYGAGKFASTFDKNFRCHVLKLPYQGNATMLVVLMEKMGDHLALEDYLTTDLVETWLRNMKTRNMEVFFPKFKLDQKYEMHELLRQMGIRRIFSPFADLSELSATGRNLQVSRVLQRTVIEVDERGTEAVAGILSEITAYSMPPVIKVDRPFHFMIYEETSGMLLFLGRVVNPTLL
modifications: Plasma glycoprotein with five potential N-linked glycosylation sites; the glycans are not carried by the letters.
Maximal factor Xa inhibition, amidolytic assay, reached within <1 minute (with PZ, Ca++ ions, cephalin) [2]: 70% | Maximal factor Xa inhibition, bioassay, reached within <1 minute (with PZ, Ca++ ions, cephalin) [2]: 97% | factor Xa amidolytic activity that persists at relatively high concentrations of ZPI [2]: 20% | stoichiometry (ZPI:factor Xa) from ZPI dose/response, factor Xa amidolytic assay with PZ, CaCl2 and cephalin (mol ZPI per mol factor Xa) [2]: 1.2

B4: rZPI(Y387R), recombinant ZPI with tyrosine 387 changed to arginine (protein, UniProt Q9UK55 22-444 with Y387R, looked up)
Protein Z-dependent protease inhibitor: B1 chain with Y387R
ZPI activity of conditioned media, two-stage assay of PZ-dependent factor Xa inhibition [2]: 21 mU/mL

Further lines, results first:

Apparent Inhibition (%) of factor Xa, one-stage coagulation assay; incubation factor Xa 120 sec, PZT 120 sec [1]: 0%
Molecule: thrombin-cleaved PZ (PZT) (from UniProt P22891 84-400)

t1/2 of inhibition of factor Xa by antithrombin III with PZ, cephalin and Ca++ ions (bioassay) [1]: 35 min
Molecule: antithrombin III (from UniProt P01008 33-464)

ZPI activity of conditioned media, two-stage assay of PZ-dependent factor Xa inhibition [2]: < 10 mU/mL
B2: rZPI(Y387A), recombinant ZPI with tyrosine 387 changed to alanine (protein, UniProt Q9UK55 22-444 with Y387A, looked up)
Protein Z-dependent protease inhibitor: B1 chain with Y387A

ZPI activity of conditioned media, two-stage assay of PZ-dependent factor Xa inhibition [2]: 375 mU/mL
B3: rZPI(WT), recombinant wild-type ZPI expressed in CHO cells (protein, UniProt Q9UK55 22-444, looked up)
Protein Z-dependent protease inhibitor: B1 chain
